Reference: patent US20250236682A1 (CENTENAIRE BIOSCIENCES, published 2025)
Values belong to the binder of their own block, whether it stands above or below them.

Legend:
[1] = molecular target: T1, human HER2 recombinant protein (R&D systems, 1129-ER) (human, UniProt P04626 23-652); experiment: BLI, HER2 on HIS1K sensor
T1 construct: extracellular domain; also called HER2 antigen; HER2 extracellular domain (ECD)

[2] = molecular target: T1, human HER2 recombinant protein (R&D …); experiment: BLI, HER2 on HIS1K sensor, 1 to 32 nM antibody
[3] = molecular target: T2, human FcγRI (R&D systems, 1257-FC) (human, UniProt P12314 16-288); experiment: BLI, His-FcγRI on HIS1K sensor
T2 construct: bought; also called FcγRI(CD64); Fcγ receptor 1

[4] = molecular target: T3, human FcγRIIIA (176V isoform, R&D systems, 4325-FC) (human, UniProt P08637 17-208); experiment: BLI, His-FcγRIIIA on HIS1K sensor
T3 construct: bought; also called FcγRIIIA(CD16A, 176V); Fcγ receptor 3A (176V isoform)

[5] = molecular target: T4, neonatal Fc receptor (FcRn) (Homo sapiens (Human), UniProt P55899 24-297; P61769 21-119); experiment: BLI, antibody on FAB2G sensor, FcRn analyte, pH 6.0
T4 construct: analyte in solution at pH 6.0; copies: 1 + 1

T2 sequence (P12314 16-288 limits assumed): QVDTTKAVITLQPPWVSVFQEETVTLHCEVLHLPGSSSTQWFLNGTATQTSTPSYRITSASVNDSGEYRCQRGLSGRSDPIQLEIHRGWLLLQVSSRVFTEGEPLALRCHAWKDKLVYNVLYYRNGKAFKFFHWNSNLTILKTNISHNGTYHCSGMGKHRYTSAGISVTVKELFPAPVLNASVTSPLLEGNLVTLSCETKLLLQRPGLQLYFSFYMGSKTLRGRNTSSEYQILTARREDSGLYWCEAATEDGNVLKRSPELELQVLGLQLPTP
T3 sequence (P08637 17-208 F176V limits assumed): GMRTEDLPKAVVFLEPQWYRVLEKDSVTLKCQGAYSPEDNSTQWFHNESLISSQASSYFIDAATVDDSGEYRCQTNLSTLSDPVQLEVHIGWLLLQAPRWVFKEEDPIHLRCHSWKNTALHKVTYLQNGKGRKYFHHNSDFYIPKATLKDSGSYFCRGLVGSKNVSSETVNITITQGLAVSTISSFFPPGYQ

B1: H01Fv1 (antibody, human IgG1)
heavy: not shown
light: not shown
chain: DKTHTCPPCPAPELLGGPSVFLFPPKPKDTLMISRTPEVTCVVVDVSHEDPEVKFNWYVDGVEVHNAKTKPREEQYNSTYRVVSVLTVLHQDWLNGKEYKCKVSNKALPAPIEKTISKAKGQPREPQVCTLPPSREEMTKNQVSLSCAVKGFYPSDIAVEWESNGQPENNYKTTPPVLDSDGSFFLVSKLTVDKSRWQQGNVFSCSVMHEALHNRFTQKSLSLSPGK
notes: also called Fv-(Fc)2, VH G44C / VL Q100C
Kd [1]: 244 pM
koff [1]: 5.11e-05 s⁻¹
kon [1]: 210000 M⁻¹ s⁻¹

B2: H01Fv7 (antibody, human IgG1, kappa)
heavy: not shown
light: not shown
chain: DKTHTCPPCPAPELLGGPSVFLFPPKPKDTLMISRTPEVTCVVVDVSHEDPEVKFNWYVDGVEVHNAKTKPREEQYNSTYRVVSVLTVLHQDWLNGKEYKCKVSNKALPAPIEKTISKAKGQPREPQVCTLPPSREEMTKNQVSLSCAVKGFYPSDIAVEWESNGQPENNYKTTPPVLDSDGSFFLVSKLTVDKSRWQQGNVFSCSVMHEALHNRFTQKSLSLSPGK
notes: also called Fv-(Fc)2, VH G44C, Q105C, F126C / VL Q100C, A43C, S121C
Kd [1]: 279 pM
koff [1]: 7.7e-05 s⁻¹
kon [1]: 276000 M⁻¹ s⁻¹

B3: H01Fv4 (antibody, human IgG1)
heavy: not shown
light: not shown
chain: DKTHTCPPCPAPELLGGPSVFLFPPKPKDTLMISRTPEVTCVVVDVSHEDPEVKFNWYVDGVEVHNAKTKPREEQYNSTYRVVSVLTVLHQDWLNGKEYKCKVSNKALPAPIEKTISKAKGQPREPQVCTLPPSREEMTKNQVSLSCAVKGFYPSDIAVEWESNGQPENNYKTTPPVLDSDGSFFLVSKLTVDKSRWQQGNVFSCSVMHEALHNRFTQKSLSLSPGK
notes: also called Fv-(Fc)2, VH G44C, Q105C / VL Q100C, A43C
Kd [1]: 326 pM
koff [1]: 7.71e-05 s⁻¹
kon [1]: 237000 M⁻¹ s⁻¹

B4: H01Fv2 (antibody, human IgG1)
heavy: not shown
light: not shown
chain: DKTHTCPPCPAPELLGGPSVFLFPPKPKDTLMISRTPEVTCVVVDVSHEDPEVKFNWYVDGVEVHNAKTKPREEQYNSTYRVVSVLTVLHQDWLNGKEYKCKVSNKALPAPIEKTISKAKGQPREPQVCTLPPSREEMTKNQVSLSCAVKGFYPSDIAVEWESNGQPENNYKTTPPVLDSDGSFFLVSKLTVDKSRWQQGNVFSCSVMHEALHNRFTQKSLSLSPGK
notes: also called Fv-(Fc)2, VH Q105C / VL A43C
Kd [1]: 324 pM
koff [1]: 3.78e-05 s⁻¹
kon [1]: 117000 M⁻¹ s⁻¹

B5: P01DE4 (antibody, human IgG1, kappa)
heavy: not shown
light: not shown
chain: DKTHTCPPCPAPELLGGPDVFLFPPKPKDTLMISRTPEVTCVVVDVSHEDPEVKFNWYVDGVEVHNAKTKPREEQYNSTYRVVSVLTVLHQDWLNGKEYKCKVSNKALPAPEEKTISKAKGQPREPQVCTLPPSREEMTKNQVSLSCAVKGFYPSDIAVEWESNGQPENNYKTTPPVLDSDGSFFLVSKLTVDKSRWQQGNVFSCSVMHEALHNHYTQKSLSLSPGK
notes: monovalent Fab-(Fc)2; also called P01 with S239D and I332E in all Fc chains
Kd [2]: 224 pM
koff [2]: 5.51e-05 s⁻¹
kon [2]: 246000 M⁻¹ s⁻¹
Kd [3]: 38 pM
koff [3]: 2.85e-05 s⁻¹
kon [3]: 748000 M⁻¹ s⁻¹
Kd [4]: 330 pM
koff [4]: 0.000159 s⁻¹
kon [4]: 478000 M⁻¹ s⁻¹

B8: H01DE4 (antibody, human IgG1, kappa)
heavy: not shown
light: not shown
chain: DKTHTCPPCPAPELLGGPDVFLFPPKPKDTLMISRTPEVTCVVVDVSHEDPEVKFNWYVDGVEVHNAKTKPREEQYNSTYRVVSVLTVLHQDWLNGKEYKCKVSNKALPAPEEKTISKAKGQPREPQVCTLPPSREEMTKNQVSLSCAVKGFYPSDIAVEWESNGQPENNYKTTPPVLDSDGSFFLVSKLTVDKSRWQQGNVFSCSVMHEALHNHYTQKSLSLSPGK
notes: monovalent Fab-(Fc)2; also called H01 with S239D and I332E in all Fc chains
Kd [2]: 145 pM
koff [2]: 3.73e-05 s⁻¹
kon [2]: 258000 M⁻¹ s⁻¹
Kd [3]: 36 pM
koff [3]: 3.06e-05 s⁻¹
kon [3]: 852000 M⁻¹ s⁻¹
Kd [4]: 100 pM
koff [4]: 5.51e-05 s⁻¹
kon [4]: 526000 M⁻¹ s⁻¹

Further lines, results first:

Kd [1]: 48.7 pM
koff [1]: 6.61e-06 s⁻¹
kon [1]: 136000 M⁻¹ s⁻¹
B6: H01Fv6 (antibody, human IgG1, kappa)
heavy: not shown
light: not shown
chain: DKTHTCPPCPAPELLGGPSVFLFPPKPKDTLMISRTPEVTCVVVDVSHEDPEVKFNWYVDGVEVHNAKTKPREEQYNSTYRVVSVLTVLHQDWLNGKEYKCKVSNKALPAPIEKTISKAKGQPREPQVCTLPPSREEMTKNQVSLSCAVKGFYPSDIAVEWESNGQPENNYKTTPPVLDSDGSFFLVSKLTVDKSRWQQGNVFSCSVMHEALHNRFTQKSLSLSPGK
notes: also called Fv-(Fc)2, VH Q105C, F126C / VL A43C, S121C

Kd [1]: 393 pM
koff [1]: 0.000107 s⁻¹
kon [1]: 273000 M⁻¹ s⁻¹
B7: H01Fv5 (antibody, human IgG1, kappa)
heavy: not shown
light: not shown
chain: DKTHTCPPCPAPELLGGPSVFLFPPKPKDTLMISRTPEVTCVVVDVSHEDPEVKFNWYVDGVEVHNAKTKPREEQYNSTYRVVSVLTVLHQDWLNGKEYKCKVSNKALPAPIEKTISKAKGQPREPQVCTLPPSREEMTKNQVSLSCAVKGFYPSDIAVEWESNGQPENNYKTTPPVLDSDGSFFLVSKLTVDKSRWQQGNVFSCSVMHEALHNRFTQKSLSLSPGK
notes: also called Fv-(Fc)2, VH G44C, F122C / VL Q100C, S121C

Kd [5]: 322000 pM
koff [5]: 0.0154 s⁻¹
kon [5]: 47900 M⁻¹ s⁻¹
B9: pertuzumab (antibody, V domains shown)
VH: EVQLVESGGGLVQPGGSLRLSCAASGFTFTDYTMDWVRQAPGKGLEWVADVNPNSGGSIYNQRFKGRFTLSVDRSKNTLYLQMNSLRAEDTAVYYCARNLGPSFYFDYWGQGTLVTVSS
VL: DIQMTQSPSSLSASVGDRVTITCKASQDVSIGVAWYQQKPGKAPKLLIYSASYRYTGVPSRFSGSGSGTDFTLTISSLQPEDFATYYCQQYYIYPYTFGQGTKVEIK
